Assay results reported in the DeepSol protein solubility set.

Assay: soluble on expression in E. coli; label from the status in PepcDB or PDB records

Row | Sequence | soluble on expression in E. coli
1 | MSLKTKYIFVTGGVVSSLGKGITAASLGRLLKNRGLKVSIQKFDPYINVDPGTMSPYQHGEVFVTDDGAETDLDLGHYERFIDENLSKNSNVTTGKVYWSVINKERRGDYLGGTVQVIPHITNELKERVYRVAKEKDVDVVITEIGGTVGDIESLPFLEAIRQIKYEVGFGNSCFIHVTLLPYLRKAGEIKTKPTQHSVKELRGIGIQPDIIVCRTEKEISKDVRSKIGLFCNIDGDSVISNLDAENLYEVPLMLHDQGLDSLVCKKLELECQEVDNSEWESMVKNIKSLSGEVTIGLVGKYVELHDAYISVVESLNHGGFANNVSVNVKWINSEEVTKDNVDSVLSDVDGILVPGGFGDRGIEGKIEAIRWARENKIPFFGICLGMQCAVIEYARNVLGLEGAHSSEIDPQTKYPVIDLMPDQKDIDDKGGTMRLGLYACKLSKDTNAYDAYEEEVIYERHRHRYEFNNEFRKRLTEEGLILAGTSPDDRLVEIVEIKDHPWFVGVQFHPEFKSRPNRPHALFRDFIKVACTVKEKEGHHHHHH | soluble
2 | MGSDKIHHHHHHMGAMRPNQTFSHKAAVKLRSVEFLQYAGVTKFHDVILTSLVDINIGIGKRGSAQIKLPYTCVSGSLANTSGTADISLAYTHAVLVKDTYQLLGTLGGKLPTNNADKLSSDGRPLPMYYQTSLGTNDLVVGLSFITRKWLLATGYQHAFNQIGNDFRWSEWNSSAQRTEALEYPPSWNLKRGSDVMFRIERNFRSTKWNAYLGLLTIYRITPDQVSKGTSENRVEVPNTTGPAITALSGAGYRFSTAVALKAMVGVKIINRDTNPDGLSREFVSSLSVEIRL | not soluble
3 | SLLVENLKQLQERVAVSDGRAKADLVIKNGRIINVFSGEIMDGDIAIKNGYIAGIGNFPDAEKIIDAAGAFIAPGFIDAHVHVESAMVTPAEFARVLLPNGVTTIVTDPHEIANVAGEKGIEFMLEDAKGVPIDMFVMLPSSVPATEGEHNGETLHAEKLHPLYRHEKVIGLAEVMDFPSVAKGSSDILTKIIDAKKEGGRIDGHGAGLTSADLNNYLAVGIRTDHESTTAKEATDRLRAGMFVMLREGTVGRDLLQTIPAVSEKNSHRFCFCTDDKLINDLITEGSINFNIRLAIKNGIDPITAIQMATINAANCHNLPYLGAVAAGYQADIVFLTDIETVEISKVLKNGEVVVDNGVRHEAAFKQQAAVPFVSPPINHHVSLQDLALPLTKETCYVIGMQPNSLFTEKRIEQVAIQDGKFVPTVENDLLKMAVVERHHDTGCVGLGIVKGFGLTEGAIATTVAHDSHNIVAVGISDEAMKAAIDHITQTGGGIAVVNGAGQVLHDLALPIAGLLSDKSYEEVENDLAGLLNAFKQISTADGFDPFLTLSFLTLPVIPELKLTDQGLFDFATFQIISNEVN | soluble
4 | MAHHHHHHMSIPLENWGQLKLSVAKPELKSEDGGDVKRDECVLELLALPKGKAKDNPNYVPRPILSIPISAIASASGTTKNDVSLTMRPAATAGAEDLELRSIRFAVPNVCVGYEETEMAGKVILQDIQSSMMQYQEQFLQRHGSGGQGGKLLALAAMGSGQAKHTDEVVVATFDDVLLSYPSGKYKIVISNYNVVLEDKKKGTSSGLLSFSLSEIQNLFLCDVPVYFSPTEEVDANSLPQYVVLILKNPLKIRSTAYNHVVISCPAGLTLDEEHPWRCELKTQDEINKTLQLPPSKEGEEPPLVPTMSGRVSDILTRTFKAIAKVPAYGGINKEYKSVLTSHSQSSMRCLFHGAEGLLYIVNSGFLYLHRPATRILFNEVARVELDESESGQATFQLTVFATGAKGDDKYVFSGIAKEEKNGLLSYLATKVKVVHTGGDAMESDDDDEKDDTSDEDESDDSDYDDSDTEDDDSSDDGGDHDSSRKRKREDKKHEKDKKHKKDKKHKKDKKHKKDKKHKKDKKHKKDKKHKKDKKHKKDRKHKKDKHEKSDA | soluble
5 | EHAPATTGPLPSAPRDVVASLVSTRFIKLTWRTPASDPHGDNLTYSVFYTKEGIARERVENTSHPGEMQVTIQNLMPATVYIFRVMAQNKHGSGESSAPLRVETQPE | soluble
6 | MMTQQELEKYLWGAATTLRGTIDAGDYKQYIFPLMFFKRICDVYDEEFENALAESDGDLEYAAFAENHHFQVPKGAHWNDVRETTTNIGLALQNAMRAIEKANPDTLEGIFGDASWTNKERLSDAMLTNLIEHYSEQTLNLKNVPDDKLGNAYEYLIKEFADDSGHTAAEFYTNRTVVKLMTMIMAPQPGESVYDPTCGSGGLLLNCALHLKDEGKEYRTLKLYGQEINLLTSAIARMNMFMHGIEEFDIVRGNTLSNPGLLENDELKKFNVILANPPYSIKSWDRKAFESDPYGRNVWGTPPQGCADYAFQQHIQKSLDLGNGRSISLWPHGILFRDAETAMRRKMIEQDQVECVIGLGPNLFYNSPMEACLLITKTNKIESKKDKILFINAVKEVRQDKNIGYLDQVHIDKIFNAYNKFENEDSFAVLVDKQEVLDKKANMAINLYIRPDSLVSSEEACFATAYQEWQQSSGDLKQSMEKLFKELV | not soluble
7 | MGSDKIHHHHHHMFSDMTLLQYINSEDRGFFLPDMGTNGLFLINKKAYEVYDSVDLQLELAKTMDKYFESDFIYSFCDGITFCETLGLETLRPDYDFPSVLTHTITDRDKLRKLDVPDPYTSGRMPLNIESLSVISKSIKKPLYESIQGPFTLAGQLAGATQLLRCIITDKKFVEELLEFTTELVRRYAVAANKAGAKYISIAEPTSVTLSKDRFDEFIVKNLNKIYNELDCWKGMHICGDTRELLDNMLSCNIDAVSLDQILDYEEIAPMIPRDIVLIGNLDPIKLLGRSKPDKIRRETLKLLKKMRRYDNFLCDFGCNCLNTTPVENLQAAIKAGRISYKELDRIDIDEL | not soluble
8 | MGSDKIHHHHHHMAEAGTLAVLVPEITIEELFTAQGADLSRRSPRQDMVDLNIKLLAEARELAKVSIIWQEVKVLGSQQQELYLEGGLTLRGSLLPKVLGPAESAVLFAMTIGEGIDERVKEYTHQGKTLEAFILDAAGSAILAKAAYHAISELAGLYKEKQLDTTFSLGPGHSYWKGLEDVRTIIDYLKGEQIGISLTDSNLMLPKKSIAMVMGVGSNLPDFKGKTHCDFCHLKGSCTMRELGVNNC | not soluble
9 | MAHHHHHHMGNTGVPSFVSTLGPPPPINLFKECQSPLTSGFSSWASFHWILLSDAFSHYYRPLECQTFYGCNFQKQLDAAANYNSFWPHHSRRLEAIRSNTPEQLCITSLHPPSRSPLTQQFPSGSFTQSPYGCRPRSLPCTAPQQWQMHRRSLQQGREHEAGRLLQQPLSFSLI | not soluble
10 | MYDTPIFRSEFKVISHELIHALPKVILGESGDAAYMQSRVQQLADDHVAYFECTVPHEDIERAISVAEQAPFTVGILERIDDSSHYTDRSRTPVVVGFSTQSADVAAILRENYVPFEFDGSVADQVRVGASRIIHGIGLFEDFRFEDDDIVPGRLSAWVRDRDYPVLVEPFADLENGEVAELADHPLPLMSKLGYRTASSILSTDRLLELTEYLELQIEDLFELTRDAVAVSLLPQPLRVQLWEELVFPFFEQLGEDFADHSTTDDAESTTELRSEREHAGHAHTDHHGGAAGLEGVDPQFLDEMGIEFDDLDL | not soluble
11 | EAGAMDERTFGKSIEVYTRQICEELLTTAAGNTDAHYKTYRCPLCGNDSVRVFPKIVKCVTDGCGFKVFRELCGTLLSKEYIHALMTDGCTPLLCRLTGKSGKTFNARLKLDKDGGTSFVFDSKPRKPQT | not soluble
12 | MLTTLAISNYRTLREIVLPLGRLNVVTGANGSGKSNLYKALRLLAQTAQGGVVNALALEGGLDSCFWAGPENLTKGMLAGDTPIEATVRQAPKRLKLGFAGEDFSYLIELGLPKPDSTTLFGLDPQIKREAIWNGAKYRPASVLVERRGPMVKSRSQDGQGWITLSAHLQSSDSIFTELADPERSPEVLKLRDSIRAWRFYDHFRTDTDAPARRPQLGTATPVLHHDGRDLPSAIQTIFEIGDKSAFDHAVSDAFPGAKVRITPQAGGILQLEFQQQGLLRPLYASELSDGTLRYLLLIAALLTPRPPELMVLNEPETSLHPDLLPALARLIAKASEVCQLWVVSHANRLINALNQFEECNTLALDKTLGQTQILGQDLLNTPSWLWQNRLEHHHHHH | soluble
13 | GPGSMHLSELCRDSNIDVIIARLRQVAPLEPAPAFSLSEGAADDDTTPATGHSDFHGLWSYQDNDGRTAFHWAIALKNFDLARKLMQAPYNSPVLTEDEEWSTPFATACSVGAPLDLLREILDRSVVELAAHMKQKETQQNPTSEEQNSSSAAVTEPAEGSSDGKPTKFLSDMPGILQPVDGTPASISAVLVDAEDATGQTPLLLAVGRGHLSIVRFLLENGANLMHQNRRGQSCLHRAVNRGNMELVEFLVSTSENNAKSKAVHRVWMDLRDKHGDSALFYASMDNNEEIGRYLLRHGADRELRNADGKAFWEV | soluble
14 | MGSDKIHHHHHHMQIYLANPRGFCAGVDRAIAIVNEALLRFEPPIYVRHEVVHNKFVVSDLANRGAVFVEELHEVPDGSIVIFSAHGVSKAVEDEAERRDLTVFDATCPLVTKVHIEVAKFAQDGMDAVLIGHAGHPEVEGTMGRFNHRHGGRIHLVENESDVEALSVQDAERLAFVTQTTLSMDDTARVIDALREKFPHIQGPRKDDICYATQNRQDAVKHLASRCEVVLVVGSPNSSNSNRLRELAERMNCRAYLIDNATEMDINWFDGIQSVGVTAGASAPEVLIQEVLQQLQDWGGDLPSELSGIEENVTFSLPKALRIPMTQVGK | not soluble
15 | MNIEEFTSGLAEKGISLSPRQLEQFELYYDMLVEWNEKINLTSITEKKEVYLKHFYDSITAAFYVDFNQVNTICDVGAGAGFPSLPIKICFPHLHVTIVDSLNKRITFLEKLSEALQLENTTFCHDRAETFGQRKDVRESYDIVTARAVARLSVLSELCLPLVKKNGLFVALKAASAEEELNAGKKAITTLGGELENIHSFKLPIEESDRNIMVIRKIKNTPKKYPRKPGTPNKSPIEG | soluble
16 | MGSDKIHHHHHHMYYPYWQLGGTPWYQPPVQQQAPPYFQLPPLYTGPYSSPYQTSLVPYLTRPLRTPETPQDRTRTIMRDLMTAIDGEHRAIQCYQQMAQHAPTKKEQQQIEEIITDEQRHLRTFSALYQQITEKQHEPTTDQKISHNYEKALAFAVEEEQKTVDFYLEVADHAPNLQIREAFQRAAKDEQNHAVWFLYFLTKRLTSKL | not soluble
17 | QTVAIKMGADNGMLAFEPSTIEIQAGDTVQWVNNKLAPHNVVVEGQPELSHKDLAFSPGETFEATFSEPGTYTYYCEPHRGAGMVGKIVVQ | soluble
18 | MGSDKIHHHHHHMDFYQVIKTRTSTKKFKNTPIAAPKLDNMLNAAMMSPSWKNKTSYSFVIVDDERKKDAIANFIINSDEDAKNSVKDAPMVVAIVGDTTESGHINGKEYYLVDSAIAMEHFVLAAANEGYGTCWIASFDEKRMKDELRIPDKYSVVAITPVGEVGESKAHYEPKDIENHIYRNYWSMPYSEKKHLVMK | not soluble
19 | MGSDKIHHHHHHMGRAPTMEADMRILLLCWRDTTHPQGGGSERYLEHIAKYLVASGHEVIFRTARHTDASRRAVRDGVEYQYAGGKYSVYVRAAVAQLMGRLGVGRLRGVDVAVDTQNGIPFFARVFSGVPTILLTHHCHRRQWDVAGPLIARLGWFIESKVSPWVHRGVRYVTVSEPSRDELVELGVPAGNITIVRNGIDDPPAPMNLPPVTRPHLVTLSRLVPHKQIEHAIDVVRELDGVVLDIIGSGWWEPQLREYARDVADRVIFHGQVAEDHKHALLAQAAVHVMPSRKEGWGLAVIEAGQHGVPTVGYSHSGGLRDSVRGGGVLVETPAQLTCAIRQLLADQRYRDELGRRAYGFASTFSWEDTGREFLRVIAQPQIPAAAHSTKQPNPR | not soluble
20 | MASAIWYYTVLVAESVLGIVGLRLYEEPAYTVLDRPSDTIEIRRYAPRVAAEVDLERRGNADGQAFTLLFNYIAGANRGGSGTSERVAMTVPVDVARPAKIAMTAPVETATQDRMTRMRFFLPATFTADTAPKPSDERVQIVTVPEQTIATLRFSGTGRDLREREQQLIAALANTPWQPVGAPYGLFYDAPFTLPFVRRNEAAVEVAKRLEHHHHHH | not soluble
